Experimental data: patent publication US20220387586A1 (Hoffmann-La Roche, published 2022)

T1: LAG3 on cells (recombinant CHO cells expressing Lag3) (human, UniProt P18627 29-525)
T1 sequence: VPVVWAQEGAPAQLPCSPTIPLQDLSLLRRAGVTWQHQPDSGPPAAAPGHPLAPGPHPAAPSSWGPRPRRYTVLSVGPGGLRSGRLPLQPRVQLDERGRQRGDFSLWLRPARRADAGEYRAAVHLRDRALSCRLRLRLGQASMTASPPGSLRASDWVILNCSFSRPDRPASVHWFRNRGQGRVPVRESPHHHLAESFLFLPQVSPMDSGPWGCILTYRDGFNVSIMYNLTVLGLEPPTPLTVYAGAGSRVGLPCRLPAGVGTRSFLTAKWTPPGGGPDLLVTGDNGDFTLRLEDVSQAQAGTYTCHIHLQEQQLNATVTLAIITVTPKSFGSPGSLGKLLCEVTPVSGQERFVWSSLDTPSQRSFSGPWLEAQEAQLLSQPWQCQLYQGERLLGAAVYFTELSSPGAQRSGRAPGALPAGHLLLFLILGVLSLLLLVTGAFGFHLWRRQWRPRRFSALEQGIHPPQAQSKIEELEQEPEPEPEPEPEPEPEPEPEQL

T2: recombinant Human LAG-3 Fc Chimera Protein (R&D Systems, 2319-L3) (human, UniProt P18627 29-450)
T2 construct: Bought protein; also called huLAG3; not shown: Fc part of the chimera
T2 sequence: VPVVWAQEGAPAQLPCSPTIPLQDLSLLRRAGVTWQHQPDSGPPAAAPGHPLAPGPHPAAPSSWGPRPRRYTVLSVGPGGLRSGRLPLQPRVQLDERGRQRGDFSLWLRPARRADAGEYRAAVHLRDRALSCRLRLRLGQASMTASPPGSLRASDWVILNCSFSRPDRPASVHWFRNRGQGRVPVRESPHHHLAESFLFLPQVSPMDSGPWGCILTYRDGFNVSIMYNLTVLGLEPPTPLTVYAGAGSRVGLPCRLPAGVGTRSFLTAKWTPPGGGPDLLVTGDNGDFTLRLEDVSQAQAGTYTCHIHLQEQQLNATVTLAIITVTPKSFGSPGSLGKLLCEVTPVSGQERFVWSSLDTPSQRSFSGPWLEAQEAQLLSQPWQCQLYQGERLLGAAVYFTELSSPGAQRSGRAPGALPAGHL

T3: biotinylated-Lag3 (UniProt P18627 23-450, limits assumed, biotinylated)
T3 construct: Probably a human LAG3 ECD construct; also called Lag3 (MHCII/ELISA)
T3 sequence (looked up): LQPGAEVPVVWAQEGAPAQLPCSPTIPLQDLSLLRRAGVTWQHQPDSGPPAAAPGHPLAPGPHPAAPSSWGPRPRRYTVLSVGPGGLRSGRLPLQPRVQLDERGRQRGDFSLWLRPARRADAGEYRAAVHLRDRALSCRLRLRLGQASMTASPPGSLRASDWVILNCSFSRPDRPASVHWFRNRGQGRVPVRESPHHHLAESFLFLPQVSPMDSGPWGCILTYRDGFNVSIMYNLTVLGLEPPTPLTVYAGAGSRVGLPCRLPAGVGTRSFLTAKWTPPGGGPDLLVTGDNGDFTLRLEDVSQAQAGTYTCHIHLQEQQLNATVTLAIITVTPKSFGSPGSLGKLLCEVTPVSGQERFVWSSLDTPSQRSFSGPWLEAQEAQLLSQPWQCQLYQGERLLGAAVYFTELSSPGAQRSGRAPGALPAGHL

T4: LAG3 on PD1+LAG3+ human U2OS cells (Homo sapiens (Human), UniProt P18627 23-525)
T4 construct: also called cellular LAG3 (dimerization assay); not shown: subunit of the reporter enzyme fused to the cytosolic C-terminus
T4 sequence: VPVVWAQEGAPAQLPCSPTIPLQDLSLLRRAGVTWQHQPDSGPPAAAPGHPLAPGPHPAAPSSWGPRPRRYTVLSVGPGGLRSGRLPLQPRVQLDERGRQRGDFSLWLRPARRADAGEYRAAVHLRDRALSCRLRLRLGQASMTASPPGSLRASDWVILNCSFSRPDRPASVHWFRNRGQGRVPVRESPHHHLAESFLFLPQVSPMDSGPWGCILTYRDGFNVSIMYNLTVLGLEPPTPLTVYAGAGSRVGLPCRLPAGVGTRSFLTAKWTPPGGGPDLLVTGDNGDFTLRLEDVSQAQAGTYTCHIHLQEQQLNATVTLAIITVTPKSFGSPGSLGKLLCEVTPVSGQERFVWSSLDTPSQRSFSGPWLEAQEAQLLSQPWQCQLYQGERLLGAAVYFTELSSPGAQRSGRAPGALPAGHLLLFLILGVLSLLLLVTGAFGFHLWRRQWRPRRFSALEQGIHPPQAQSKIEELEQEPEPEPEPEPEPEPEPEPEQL


Key:
[1] = target: T5, full-length human PD1 on cells (human, UniProt Q15116 25-288); test: cell-based or functional assay
[2] = target: T1, LAG3 on cells (recombinant CHO cells …); test: cell-based or functional assay
[3] = target: T6, PD1 on PD1+LAG3+ human U2OS cells (UniProt Q15116 25-288); test: cellular PD1/LAG3 dimerization assay, 7500 PD1+LAG3+ U2OS cells a well, 20 h at 37 °C, chemoluminescence; the signal needs PD1 and LAG3 bound at once
Protocol: Next, assay plates were equilibrated to room temperature and a substrate/buffer mix (PathHunterFlash detection reagent, Discoverx) was added and again incubated for 4h. For measuring chemoluminescence induced upon simultaneous binding and dimerization a SpectraMax L plate reader (Molecular Devices) was used.

[4] = target: T2, recombinant Human LAG-3 Fc Chimera …; test: ELISA on coated Human LAG-3 Fc Chimera (rel. EC50)
Protocol: After washing (3×90 μl/well with PBST-buffer) each well was incubated with 90 μl blocking buffer (PBS+2% BSA+0.05% Tween 20) for 1 h at room temperature. […] After washing (3×90 μl/well with PBST-buffer) 25 μl/well goat anti-Human Ig κ chain antibody-HRP conjugate (Milipore, AP502P) was added in a 1:2000 dilution and incubated at RT for 1 h. After washing (3×90 μl/well with PBST-buffer) 25 μl/well TMB substrate (Roche, 11835033001) was added and incubated for 2-10 min. Measurement took place on a Tecan Safire 2 instrument at 370/492 nm.

[5] = target: T7, biotinylated PD1-ECD-AviHis (human, UniProt Q15116 25-170, biotinylated); test: ELISA on coated biotinylated PD1-ECD-AviHis (rel. EC50)
T7 construct: also called huPD1; hu PD1; not shown: Avi-His tag
Protocol: After washing (3×90 μl/well with PBST-buffer) 25 μl/well goat-anti-human H+L-POD (JIR, JIR109-036-098) was added in 1:5000 dilution and incubated at RT for 1 h on a shaker. After washing (3×90 μl/well with PBST-buffer) 25 μl/well of TMB substrate (Roche, 11835033001) was added and incubated until OD 2-3. Measurement took place at 370/492 nm.

[6] = target: T1, LAG3 on cells (recombinant CHO cells …); test: cell ELISA on recombinant CHO cells expressing Lag3 (rel. EC50)
Protocol: After washing (1×90 μl in PBST) cells were fixed by addition of 30 μl/well glutaraldehyde to a final concentration of 0.05% (Sigma Cat.No: G5882), 10 min at room temperature. After washing (3×90 μl/well with PBST-buffer) 25 μl/well goat anti-Human Ig κ chain antibody-HRP conjugate (Milipore, AP502P) was added in a 1:1000 dilution and incubated at RT for 1 h. After washing (3×90 μl/well with PBST-buffer) 25 μl/well TMB substrate (Roche, 11835033001) was added and incubated for 6-10 min. Measurement took place on a Tecan Safire 2 instrument at 370/492 nm.

[7] = target: T5, full-length human PD1 on cells; test: cell ELISA on CHO-K1 cells expressing full-length human PD1 (rel. EC50)
Protocol: (to avoid internalization). After washing carefully (1×90 μl/well PBST) cells were fixed by adding 30 μl/well 0.05% Glutaraldehyde (Sigma, Cat.No: G5882, 25%) diluted in 1×PBS-buffer and incubated for 10 min at RT. After washing (3×90 μl/well PBST) 25 μl/well secondary antibody was added for detection: goat-anti-human H+L-POD (JIR, JIR109-036-088)/Sheep-anti-mouse-POD (GE NA9310) followed by 1 h incubation at RT on shaker. After washing (3×90 μl/well PBST) 25 μl/well TMB substrate solution (Roche 11835033001) was added and incubated until OD 1.0-2.0. Plates were measured at 370/492 nm.

biotinylated-Lag3 = target: T3, biotinylated-Lag3; test: ELISA, inhibition of biotinylated-Lag3 binding to MHC-II on A375 cells (competitor MHC-II)
Protocol: 25 μl/well of A375 cells (10000 cells/well) were seeded into tissue culture treated 384-well plates (Corning, 3701) and incubated at 37° C. overnight. […] After washing (1×90 μl in PBST) cells were fixed by addition of 30 μl/well glutaraldehyde to a final concentration of 0.05% (Sigma Cat.No: G5882), 10 min at room temperature. After washing (3×90 μl/well with PBST-buffer) 25 μl/well Poly-HRP40-Streptavidin (Fitzgerald, 65R-S104PHRPx) was added in a 1:2000 or 1:8000 dilution and incubated at RT for 1 h. After washing (3×90 μl/well with PBST-buffer) 25 μl/well TMB substrate (Roche, 11835033001) was added and incubated for 2 to 10 min. Measurement took place on a Tecan Safire 2 instrument at 370/492 nm.

[8] = target: T6, PD1 on PD1+LAG3+ human U2OS cells; test: cellular PD1/LAG3 dimerization assay on PD1+LAG3+ U2OS cells, chemoluminescence; the signal needs PD1 and LAG3 bound at once
Protocol: (§1) For this specific interaction, the cytosolic C-terminal ends of both receptors were individually fused to heterologous subunits of a reporter enzyme.
(§2) On the next day cell medium was discarded and replaced by fresh medium. Antibody or ligand dilutions were prepared and titrated amounts of indicated (bispecific) antibodies were added and incubated at 37° C. for 2 hours. Next, a substrate/buffer mix (e.g. PathHunterFlash detection reagent) was added and again incubated for 1h. For measuring chemoluminescence induced upon simultaneous binding and dimerization a Tecan infinite reader was used.

[9] = target: T4, LAG3 on PD1+LAG3+ human U2OS cells; test: as above
Protocol: as §1, §2

T5 sequence (Q15116 25-288 limits assumed): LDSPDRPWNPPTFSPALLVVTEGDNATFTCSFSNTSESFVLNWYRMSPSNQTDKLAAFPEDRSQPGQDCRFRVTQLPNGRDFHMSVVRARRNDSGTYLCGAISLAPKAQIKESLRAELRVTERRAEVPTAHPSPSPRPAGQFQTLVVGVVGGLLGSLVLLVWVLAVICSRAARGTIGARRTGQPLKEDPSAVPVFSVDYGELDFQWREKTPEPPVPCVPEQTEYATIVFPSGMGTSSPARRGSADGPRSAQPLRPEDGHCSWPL
T6 sequence (Q15116 25-288): as the sequence (Q15116 25-288 limits assumed) above
T7 sequence (Q15116 25-170): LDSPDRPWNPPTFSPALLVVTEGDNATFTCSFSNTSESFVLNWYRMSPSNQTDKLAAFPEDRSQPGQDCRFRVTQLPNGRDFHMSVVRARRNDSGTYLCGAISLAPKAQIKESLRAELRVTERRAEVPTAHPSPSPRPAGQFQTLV

Row | EC50 [nM], PD-1 & LAG-3 combo reporter assay (NFAT luciferase) [1] [nM] | EC50 [nM], PD-1 & LAG-3 combo reporter assay (NFAT luciferase) [2] [nM] | EC50 (read off the curve) [3] [nM] | EC50 [4] [nM] | EC50 [5] [nM] | EC50 [6] [nM] | EC50 [7] [nM] | IC50 (biotinylated-Lag3) [nM] | EC50 (read off the curve) [8] [µg/mL] | EC50 (read off the curve) [9] [µg/mL] | Binder
1 | 2.2 | 2.2 | ~0.06 | – | – | – | – | – | – | – | PD1/LAG3 0725 (bispecific antibody, human IgG1, kappa, L234A L235A, 1+1 trans format: LAG3 Fab fused to the C-terminus of the Fc hole chain) heavy 1: not shown heavy 2: DKTHTCPPCPAPEAAGGPSVFLFPPKPKDTLMISRTPEVTCVVVDVSHEDPEVKFNWYVDGVEVHNAKTKPREEQYNSTYRVVSVLTVLHQDWLNGKEYKCKVSNKALGAPIEKTISKAKGQPREPQVCTLPPSRDELTKNQVSLSCAVKGFYPSDIAVEWESNGQPENNYKTTPPVLDSDGSFFLVSKLTVDKSRWQQGNVFSCSVMHEALHNHYTQKSLSLSPGKGGGGSGGGGSEVQLLESGGGLVQPGGSLRLSCAASGFIFDDYTMNWVRQAPGKGLEWVAVISWDGGGTYYTDSVKGRFTISRDDFKNTLYLQMNSLRAEDTAVYYCAKGLTDTTLYGSDYWGQGTLVTVSSASTKGPSVFPLAPSSKSTSGGTAALGCLVEDYFPEPVTVSWNSGALTSGVHTFPAVLQSSGLYSLSSVVTVPSSSLGTQTYICNVNHKPSNTKVDEKVEPKSC light 1: EVQLLESGGGLVQPGGSLRLSCAASGFSFSSYTMSWVRQAPGKGLEWVATISGGGRDIYYPDSVKGRFTISRDNSKNTLYLQMNSLRAEDTAVYYCVLLTGRVYFALDSWGQGTLVTVSSASVAAPSVFIFPPSDEQLKSGTASVVCLLNNFYPREAKVQWKVDNALQSGNSQESVTEQDSKDSTYSLSSTLTLSKADYEKHKVYACEVTHQGLSSPVTKSFNRGEC light 2: not shown
2 | – | – | – | 0.02 | 0.03 | 0.64 | 0.31 | 0.47 | ~0.06 | ~0.06 | PD1/LAG3 1252 (bispecific antibody, human IgG1, kappa, L234A L235A, 2+1 format: two LAG3 Fabs, one PD1 crossFab fused to the C-terminus of the Fc knob heavy chain) heavy 1: not shown heavy 2: QVQLQQWGAGLLKPSETLSLTCAVYGGSFSDYYWNWIRQPPGKGLEWIGEINHNGNTNSNPSLKSRVTLSLDTSKNQFSLKLRSVTAADTAVYYCAFGYSDYEYNWFDPWGQGTLVTVSSASTKGPSVFPLAPSSKSTSGGTAALGCLVEDYFPEPVTVSWNSGALTSGVHTFPAVLQSSGLYSLSSVVTVPSSSLGTQTYICNVNHKPSNTKVDEKVEPKSCDKTHTCPPCPAPEAAGGPSVFLFPPKPKDTLMISRTPEVTCVVVDVSHEDPEVKFNWYVDGVEVHNAKTKPREEQYNSTYRVVSVLTVLHQDWLNGKEYKCKVSNKALGAPIEKTISKAKGQPREPQVCTLPPSRDELTKNQVSLSCAVKGFYPSDIAVEWESNGQPENNYKTTPPVLDSDGSFFLVSKLTVDKSRWQQGNVFSCSVMHEALHNHYTQKSLSLSPGK light 1: DIVMTQSPDSLAVSLGERATINCKASESVDTSDNSFIHWYQQKPGQSPKLLIYRSSTLESGVPDRFSGSGSGTDFTLTISSLQAEDVAVYYCQQNYDVPWTFGQGTKVEIKSSASTKGPSVFPLAPSSKSTSGGTAALGCLVKDYFPEPVTVSWNSGALTSGVHTFPAVLQSSGLYSLSSVVTVPSSSLGTQTYICNVNHKPSNTKVDKKVEPKSC light 2: not shown
